Among the data in publication PMC5337904, “A novel cytochrome P450, CYP3201B1, is involved in (R)‐mandelonitrile biosynthesis in a cyanogenic millipede” (FEBS Open Bio, 2017) are Km, kcat and kcat/Km values, retold here.

Read-outs that look alike come from different tables or passages of the source.

Holding throughout (conditions): 50 nM enzyme, 2 mM NADPH, 50 mM potassium phosphate pH 6.5, 35 °C, 5 min, with yeast P450 reductase
The target in data set [1] is CYP3201B1 (Chamberlinius hualienensis, UniProt A0A1J1DVP9).
Sequence of CYP3201B1 (A0A1J1DVP9 1-501 limits assumed): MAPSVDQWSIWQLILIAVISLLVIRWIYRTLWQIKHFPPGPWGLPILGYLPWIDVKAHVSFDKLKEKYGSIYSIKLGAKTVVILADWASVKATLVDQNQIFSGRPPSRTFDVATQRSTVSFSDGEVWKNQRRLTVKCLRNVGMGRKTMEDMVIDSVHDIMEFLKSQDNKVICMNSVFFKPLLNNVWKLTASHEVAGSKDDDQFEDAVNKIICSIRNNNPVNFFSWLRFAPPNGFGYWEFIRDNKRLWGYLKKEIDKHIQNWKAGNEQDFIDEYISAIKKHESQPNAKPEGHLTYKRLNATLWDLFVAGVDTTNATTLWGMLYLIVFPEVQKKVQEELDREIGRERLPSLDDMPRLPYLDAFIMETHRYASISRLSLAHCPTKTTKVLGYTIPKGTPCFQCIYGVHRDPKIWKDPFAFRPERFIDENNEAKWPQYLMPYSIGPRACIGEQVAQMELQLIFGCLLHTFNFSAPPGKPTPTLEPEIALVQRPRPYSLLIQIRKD
Data set [2] deals with Cc1ccccc1CC#N. The experiment in a line: cells, lysate or membranes.
In data set [3] the test system is Cc1cccc(CC#N)c1. The experiment in a line: cells, lysate or membranes.

`N#CCc1ccccc1` [PAN]: in data set [1] (product (R)-mandelonitrile), the Km – broadly, the concentration of substrate that gives half-maximal velocity – turned out to be 9.2 ± 2.3 µM.

For `N#CCc1ccc(O)cc1` [4‐HydroxyPAN], the Km in data set [1] is 15.8 ± 1.2 µM.

As for CYP3201B1 (Chamberlinius hualienensis), in data set [2], the Km was determined as 6.6 ± 1.6 µM, the kcat (commonly the maximal rate divided by the concentration of active sites) amounted to 1.12 ± 0.07 s⁻¹ and the kcat/Km (commonly the second-order rate constant that governs catalysis at low substrate concentration) worked out at 170000 M⁻¹ s⁻¹. Moreover, in data set [3], the Km worked out at 6.9 ± 1.3 µM, the kcat stood at 1.09 ± 0.0433 s⁻¹ and the kcat/Km came to 158000 M⁻¹ s⁻¹.
